# Data reported in PMC9599461, “Stereoselectivity in the Membrane Transport of Phenylethylamine Derivatives by Human Monoamine Transporters and Organic Cation Transporters 1, 2, and 3” (Biomolecules, 2022).
# “And” between values parts separate entries of the source, which are not always exact repeats. Equal entries are not always repeated.
# T1: OCT3 (Homo sapiens, UniProt O75751)
# T1 sequence (O75751 1-556): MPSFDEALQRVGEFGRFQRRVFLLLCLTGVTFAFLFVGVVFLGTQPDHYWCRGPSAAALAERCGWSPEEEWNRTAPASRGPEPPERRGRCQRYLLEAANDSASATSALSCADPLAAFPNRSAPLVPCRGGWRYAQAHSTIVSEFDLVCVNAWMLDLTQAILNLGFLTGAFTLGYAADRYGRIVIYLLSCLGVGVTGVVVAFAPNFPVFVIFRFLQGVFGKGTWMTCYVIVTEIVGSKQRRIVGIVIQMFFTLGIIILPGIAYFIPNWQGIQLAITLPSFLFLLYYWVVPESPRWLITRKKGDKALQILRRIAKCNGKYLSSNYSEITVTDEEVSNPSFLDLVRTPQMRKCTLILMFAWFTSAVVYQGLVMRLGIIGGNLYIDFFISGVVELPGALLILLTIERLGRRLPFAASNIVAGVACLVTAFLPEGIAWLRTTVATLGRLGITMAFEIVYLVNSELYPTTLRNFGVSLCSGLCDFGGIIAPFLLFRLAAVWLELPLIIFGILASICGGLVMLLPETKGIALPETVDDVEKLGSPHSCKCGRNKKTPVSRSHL
# T2: OCT2 (wild-type) (Homo sapiens, UniProt O15244)
# T2 sequence (O15244 1-555 S270A): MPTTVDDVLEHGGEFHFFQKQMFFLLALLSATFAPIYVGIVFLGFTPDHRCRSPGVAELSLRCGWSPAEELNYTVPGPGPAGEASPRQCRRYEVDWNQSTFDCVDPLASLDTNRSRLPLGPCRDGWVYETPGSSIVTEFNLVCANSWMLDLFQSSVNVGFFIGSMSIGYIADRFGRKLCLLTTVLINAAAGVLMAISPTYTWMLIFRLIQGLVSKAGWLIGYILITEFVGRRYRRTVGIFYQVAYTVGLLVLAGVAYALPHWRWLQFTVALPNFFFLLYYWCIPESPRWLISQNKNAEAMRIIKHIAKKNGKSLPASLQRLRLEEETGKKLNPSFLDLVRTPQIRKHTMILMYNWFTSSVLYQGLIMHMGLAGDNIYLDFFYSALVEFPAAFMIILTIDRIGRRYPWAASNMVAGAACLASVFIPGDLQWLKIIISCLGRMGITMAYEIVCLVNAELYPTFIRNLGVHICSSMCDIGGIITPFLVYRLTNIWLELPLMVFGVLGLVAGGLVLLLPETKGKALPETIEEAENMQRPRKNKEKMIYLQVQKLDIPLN
# How the values were obtained:
# OCT2 A270S variant [1] = assay: in vitro; conditions: human, Stereoselectivity OCT2_A270S, 100 μM racemic substance, two minutes; uptake ratio of enantiomers, given as for (R)
# Alpha-2 adrenoreceptor = tested on: Alpha-2 adrenoreceptor; parameters: method as in PMID 2833972; conditions: cited from earlier work
# Alpha-1 adrenoreceptor = conditions: cited from earlier work
# OCT3 = target: T1, OCT3; assay: Stereoselective uptake into OCT3-overexpressing HEK293 cells; conditions: OCT3; ratio between enantiomers, given as for (R) or for 1;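 further: intracellular accumulation in HEK293 cells measured by chiral HPLC-MS/MS after a 2 min substrate exposure at 37 °C, uptake normalized to total protein (bicinchoninic acid assay)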
# OCT2 (wild-type) = target: T2, OCT2 (wild-type); assay: Stereoselective uptake into OCT2 (wild-type)-overexpressing HEK293 cells; conditions: human, 100 μM racemic substance, two minutes, uptake ratio of enantiomers, given as for (R)
# OCT2 A270S variant [2] = assay: Stereoselective uptake into OCT2 A270S variant-overexpressing HEK293 cells; conditions: human, HEK293 cells stably overexpressing human OCT2 A270S variant;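 further: uptake into HEK293 cells stably overexpressing human OCT2 variants, intracellular enantiomers quantified by chiral HPLC-MS/MS and normalized to total protein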
# SERT = SERT (Homo sapiens, UniProt P31645); assay: Stereoselective uptake into SERT-overexpressing HEK293 cells; conditions: SERT; ratio between enantiomers, given as for (R) or for 1;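 further: uptake into HEK293 cells stably expressing human SERT over 2 min, enantiomers measured in cell lysate by chiral HPLC-MS/MS, normalized to total protein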
# CNCC(O)c1ccc(O)c(OC)c1 = assay: cells, lysate or membranes; conditions: other: HEK293 cells overexpressing human SERT; racemic substrate, two minutes; net uptake minus empty vector control; 37.0 °C
# [3] = tested on: [H][C@](O)(CNC)c1ccc(O)cc1; assay: cells, lysate or membranes; conditions: other: HEK293 cells overexpressing human SERT; racemic substrate, two minutes; net uptake minus empty vector control; 37.0 °C
# NC[C@H](O)c1ccc(O)cc1 = assay: cells, lysate or membranes; conditions: other: HEK293 cells overexpressing human SERT; racemic substrate, two minutes; net uptake minus empty vector control; 37.0 °C
# CNC[C@@H](O)c1ccc(O)cc1 = assay: cells, lysate or membranes; conditions: other: HEK293 cells overexpressing human SERT; racemic substrate, two minutes; net uptake minus empty vector control; 37.0 °C
# NC[C@@H](O)c1ccc(O)cc1 = assay: cells, lysate or membranes; conditions: other: HEK293 cells overexpressing human SERT; racemic substrate, two minutes; net uptake minus empty vector control; 37.0 °C
# NCC(O)c1cccc(O)c1 = assay: cells, lysate or membranes; conditions: other: HEK293 cells overexpressing human SERT; racemic substrate, two minutes; net uptake minus empty vector control; 37.0 °C
# COc1cc(C(O)CN)ccc1O = assay: cells, lysate or membranes; conditions: other: HEK293 cells overexpressing human SERT; racemic substrate, two minutes; net uptake minus empty vector control; 37.0 °C
# [4] = substrate: [H][C@](O)(CNC)c1ccc(O)cc1; assay: cells, lysate or membranes; conditions: racemic substrate, two minutes, net uptake minus empty vector control, 37.0 °C
# [5] = substrate: CNC[C@@H](O)c1ccc(O)cc1; assay: cells, lysate or membranes; conditions: racemic substrate, two minutes, net uptake minus empty vector control, 37.0 °C
# [6] = substrate: NC[C@@H](O)c1ccc(O)cc1; assay: cells, lysate or membranes; conditions: racemic substrate, two minutes, net uptake minus empty vector control, 37.0 °C
# [7] = substrate: CNCC(O)c1ccc(O)c(OC)c1; assay: cells, lysate or membranes; conditions: racemic substrate, two minutes, net uptake minus empty vector control, 37.0 °C
# [8] = substrate: COc1cc(C(O)CN)ccc1O; assay: cells, lysate or membranes; conditions: racemic substrate, two minutes, net uptake minus empty vector control, 37.0 °C
# [9] = substrate: CNC[C@H](O)c1cccc(O)c1; assay: cells, lysate or membranes; conditions: racemic substrate, two minutes, net uptake minus empty vector control, 37.0 °C
# [10] = substrate: NCC(O)c1cccc(O)c1; assay: cells, lysate or membranes; conditions: other: HEK293 cells overexpressing human OCT3; racemic substrate, two minutes; net uptake minus empty vector control; 37.0 °C
# [11] = substrate: CNC[C@@H](O)c1cccc(O)c1; assay: cells, lysate or membranes; conditions: racemic substrate, two minutes, net uptake minus empty vector control, 37.0 °C
# [12] = substrate: NC[C@H](O)c1ccc(O)cc1; assay: cells, lysate or membranes; conditions: racemic substrate, two minutes, net uptake minus empty vector control, 37.0 °C
# [13] = other: HEK293 cells overexpressing human OCT3
# [14] = other: HEK293 cells overexpressing human OCT1
molecule,measurement,setting,value
CNC[C@H](O)c1cccc(O)c1 [Phenylephrine],"selectivity ratio at 2 min, 100 μM",OCT2 A270S variant [1],1.16
same,Enantiomeric Activity Ratio (R/S) in Receptor Binding Alpha-2,Alpha-2 adrenoreceptor,45
same,Enantiomeric Activity Ratio (R/S) in Receptor Binding Alpha-1,Alpha-1 adrenoreceptor,420
same,Stereoselectivity Vmax,OCT3,3.3 fold
same,"selectivity ratio at 2 min, 100 μM",OCT2 (wild-type); Stereoselectivity OCT2_WT,1.3
NCC(O)c1ccc(O)cc1 (stereo not shown) [Octopamine],Enantiomeric Activity Ratio (R/S) in Receptor Binding Alpha-2,Alpha-2 adrenoreceptor,3
same,"selectivity ratio at 2 min, 100 μM",OCT2 A270S variant [2],1.69
same,Enantiomeric Activity Ratio (R/S) in Receptor Binding Alpha-1,Alpha-1 adrenoreceptor,5
same,"selectivity ratio at 2 min, 100 μM","OCT2 (wild-type); HEK293 cells stably overexpressing human wild-type OCT2, Stereoselectivity OCT2_WT",1.74
same,Stereoselectivity Vmax,SERT,2.4 fold
NCC(O)c1cccc(O)c1 (stereo not shown) [Norphenylephrine],"selectivity ratio at 2 min, 100 μM",OCT2 A270S variant [1],1.46
same,Enantiomeric Activity Ratio (R/S) in Receptor Binding Alpha-2,Alpha-2 adrenoreceptor,3
same,Enantiomeric Activity Ratio (R/S) in Receptor Binding Alpha-1,Alpha-1 adrenoreceptor,8
same,Stereoselectivity Vmax,OCT3,3.9 fold
same,"selectivity ratio at 2 min, 100 μM",OCT2 (wild-type); Stereoselectivity OCT2_WT,1.54
SERT (Homo sapiens),Km,CNCC(O)c1ccc(O)c(OC)c1,151 µM and 165 µM
same,Vmax,CNCC(O)c1ccc(O)c(OC)c1,87.4 pmol × mg Protein^−1 × min^−1 and 94.5 pmol × mg Protein^−1 × min^−1
same,Km,[3],528 µM
same,Vmax,[3],363 pmol × mg Protein^−1 × min^−1
same,Km,NC[C@H](O)c1ccc(O)cc1,59.6 µM
same,Vmax,NC[C@H](O)c1ccc(O)cc1,247 pmol × mg Protein^−1 × min^−1
same,Km,CNC[C@@H](O)c1ccc(O)cc1,804 µM
same,Vmax,CNC[C@@H](O)c1ccc(O)cc1,491 pmol × mg Protein^−1 × min^−1
same,Km,NC[C@@H](O)c1ccc(O)cc1,42.9 µM
same,Vmax,NC[C@@H](O)c1ccc(O)cc1,104 pmol × mg Protein^−1 × min^−1
same,Km,NCC(O)c1cccc(O)c1,333 µM and 277 µM
same,Vmax,NCC(O)c1cccc(O)c1,400 pmol × mg Protein^−1 × min^−1 and 508 pmol × mg Protein^−1 × min^−1
same,Km,COc1cc(C(O)CN)ccc1O,42.0 µM and 38.7 µM
same,Vmax,COc1cc(C(O)CN)ccc1O,93.6 pmol × mg Protein^−1 × min^−1 and 157 pmol × mg Protein^−1 × min^−1
OCT3 (Homo sapiens) (protein) MPSFDEALQRVGEFGRFQRRVFLLLCLTGVTFAFLFVGVVFLGTQPDHYWCRGPSAAALAERCGWSPEEEWNRTAPASRGPEPPERRGRCQRYLLEAANDSASATSALSCADPLAAFPNRSAPLVPCRGGWRYAQAHSTIVSEFDLVCVNAWMLDLTQAILNLGFLTGAFTLGYAADRYGRIVIYLLSCLGVGVTGVVVAFAPNFPVFVIFRFLQGVFGKGTWMTCYVIVTEIVGSKQRRIVGIVIQMFFTLGIIILPGIAYFIPNWQGIQLAITLPSFLFLLYYWVVPESPRWLITRKKGDKALQILRRIAKCNGKYLSSNYSEITVTDEEVSNPSFLDLVRTPQMRKCTLILMFAWFTSAVVYQGLVMRLGIIGGNLYIDFFISGVVELPGALLILLTIERLGRRLPFAASNIVAGVACLVTAFLPEGIAWLRTTVATLGRLGITMAFEIVYLVNSELYPTTLRNFGVSLCSGLCDFGGIIAPFLLFRLAAVWLELPLIIFGILASICGGLVMLLPETKGIALPETVDDVEKLGSPHSCKCGRNKKTPVSRSHL,Km,[4]; [13],83.5 µM
same,Vmax,[4]; [13],2193 pmol × mg Protein^−1 × min^−1
same,Km,[5]; [13],75.3 µM
same,Vmax,[5]; [13],2090 pmol × mg Protein^−1 × min^−1
same,Km,[6]; [13],20.1 µM
same,Vmax,[6]; [13],1072 pmol × mg Protein^−1 × min^−1
same,Km,[7]; [13],29.0 µM and 24.4 µM
same,Vmax,[7]; [13],752 pmol × mg Protein^−1 × min^−1 and 635 pmol × mg Protein^−1 × min^−1
same,Km,[8]; [13],75.9 µM and 62.4 µM
same,Vmax,[8]; [13],1473 pmol × mg Protein^−1 × min^−1 and 1352 pmol × mg Protein^−1 × min^−1
same,Km,[9]; [13],244 µM
same,Vmax,[9]; [13],2885 pmol × mg Protein^−1 × min^−1
same,Km,[10],582 µM and 498 µM
same,Km,[11]; [13],205 µM
same,Vmax,[11]; [13],866 pmol × mg Protein^−1 × min^−1
same,Km,[12]; [13],25.1 µM
same,Vmax,[12]; [13],972 pmol × mg Protein^−1 × min^−1
OCT1 (Homo sapiens) (protein) MPTVDDILEQVGESGWFQKQAFLILCLLSAAFAPICVGIVFLGFTPDHHCQSPGVAELSQRCGWSPAEELNYTVPGLGPAGEAFLGQCRRYEVDWNQSALSCVDPLASLATNRSHLPLGPCQDGWVYDTPGSSIVTEFNLVCADSWKLDLFQSCLNAGFLFGSLGVGYFADRFGRKLCLLGTVLVNAVSGVLMAFSPNYMSMLLFRLLQGLVSKGNWMAGYTLITEFVGSGSRRTVAIMYQMAFTVGLVALTGLAYALPHWRWLQLAVSLPTFLFLLYYWCVPESPRWLLSQKRNTEAIKIMDHIAQKNGKLPPADLKMLSLEEDVTEKLSPSFADLFRTPRLRKRTFILMYLWFTDSVLYQGLILHMGATSGNLYLDFLYSALVEIPGAFIALITIDRVGRIYPMAMSNLLAGAACLVMIFISPDLHWLNIIIMCVGRMGITIAIQMICLVNAELYPTFVRNLGVMVCSSLCDIGGIITPFIVFRLREVWQALPLILFAVLGLLAAGVTLLLPETKGVALPETMKDAENLGRKAKPKENTIYLKVQTSEPSGT,Km,[4]; [14],86.7 µM
same,Vmax,[4]; [14],1817 pmol × mg Protein^−1 × min^−1
same,Km,[5]; [14],111 µM
same,Vmax,[5]; [14],1348 pmol × mg Protein^−1 × min^−1
same,Km,[6]; [14],281 µM
same,Vmax,[6]; [14],1211 pmol × mg Protein^−1 × min^−1
same,Km,[7]; [14],134 µM and 146 µM
same,Km,[8]; [14],806 µM and 1279 µM
same,Vmax,[8]; [14],2137 pmol × mg Protein^−1 × min^−1 and 3145 pmol × mg Protein^−1 × min^−1
same,Km,[9]; [14],175 µM
same,Vmax,[9]; [14],1710 pmol × mg Protein^−1 × min^−1
same,Km,[11]; [14],178 µM
same,Vmax,[11]; [14],1578 pmol × mg Protein^−1 × min^−1
same,Km,[12]; [14],291 µM
same,Vmax,[12]; [14],1318 pmol × mg Protein^−1 × min^−1
